Results as given in EP2210617A1.

Columns and labels:
[1] = target: GFRα2/Fc fusion protein (R&D Systems) (human); experiment: GFRα2 ELISA (GFRα2/Fc on anti-Fc plate, Ret-AP detection) on conditioned medium of transfected CHO cells; reference is medium of wt NTN transfected cells
[2] = target: GFRα2/Fc fusion protein (R&D Systems) (human); experiment: GFRα2 ELISA (GFRα2/Fc on anti-Fc plate, Ret-AP detection) on conditioned medium of transfected HiB5 cells; reference is medium of wt NTN transfected cells
[3] = target: GFRα2/Fc fusion protein (R&D Systems) (human); experiment: GFRα2 ELISA (GFRα2/Fc on anti-Fc plate, Ret-AP detection) on conditioned medium of transfected HEK293 cells; reference is medium of wt NTN transfected cells
[4] = target: GFRα2/Fc fusion protein (R&D Systems) (human); experiment: GFRα2 ELISA (GFRα2/Fc on anti-Fc plate, Ret-AP detection) on conditioned medium of transfected ARPE-19 cells; reference is medium of wt NTN transfected cells

Row | Binder | fold higher NTN binding (relative GFRα2 binding activity, wt construct set to 1) [1] | fold higher NTN binding (relative GFRα2 binding activity, wt construct set to 1) [2] | fold higher NTN binding (relative GFRα2 binding activity, wt construct set to 1) [3] | fold higher NTN binding (relative GFRα2 binding activity, wt construct set to 1) [4]
1 | mature human Neurturin secreted from cells transfected with the dpro-NTN construct (deltapro102NTN) (ligand) ARLGARPCGLRELEVRVSELGLGYASDETVLFRYCAGACEAAARVYDLGLRRLRQRRRLRRERVRAQPCCRPTAYEDEVSFLDAHSRYHTVHELSARECACV | 4.1 fold | 7.5 fold | 90 fold | 117 fold
2 | mature human Neurturin secreted from cells transfected with the IgSP-NTN construct (IgSP-102NTN) (ligand) ARLGARPCGLRELEVRVSELGLGYASDETVLFRYCAGACEAAARVYDLGLRRLRQRRRLRRERVRAQPCCRPTAYEDEVSFLDAHSRYHTVHELSARECACV | 66 fold | 162 fold | 278 fold | 771 fold
